± gives the uncertainty stated by the source.

To fix the notation:
B1: Endonuclease CUE2, residues 9 to 47; numbered along this chain, P36075 (parent)
chain: HESKLSILMDMFPAISKSKLQVHLLENNNDLDLTIGLLL

Variants of B1 are the subject of the series. In words: abundance fitness (aPCA) (normalised: wild type 0, dead -1); higher = more abundant; growth selection in yeast, the domain comes from the species named. The conditions noted are these: Saccharomyces cerevisiae (strain ATCC 204508 / S288c).
In the case of HEPKLSILMDMFPAISKSKLQVHLLENNNDLDLTIGLLL [S3P], the abundance fitness is -0.453 ± 0.12.

For HEWKLSILMDMFPAISKSKLQVHLLENNNDLDLTIGLLL [S3W], the abundance fitness is -0.428 ± 0.054.

For HERKLSILMDMFPAISKSKLQVHLLENNNDLDLTIGLLL [S3R], the abundance fitness is -0.329 ± 0.04.

On to HEHKLSILMDMFPAISKSKLQVHLLENNNDLDLTIGLLL [S3H], for which the abundance fitness came out at 0.014 ± 0.068.

Take HEQKLSILMDMFPAISKSKLQVHLLENNNDLDLTIGLLL [S3Q]: the abundance fitness was -0.057 ± 0.051.

Turning to HEKKLSILMDMFPAISKSKLQVHLLENNNDLDLTIGLLL [S3K], the abundance fitness was -0.094 ± 0.097.

On to HELKLSILMDMFPAISKSKLQVHLLENNNDLDLTIGLLL [S3L], for which the abundance fitness was -0.184 ± 0.048.

On to HEGKLSILMDMFPAISKSKLQVHLLENNNDLDLTIGLLL [S3G], for which the abundance fitness is -0.145 ± 0.036.

Turning to HEVKLSILMDMFPAISKSKLQVHLLENNNDLDLTIGLLL [S3V], the abundance fitness was -0.329 ± 0.047.

HEAKLSILMDMFPAISKSKLQVHLLENNNDLDLTIGLLL [S3A]: the abundance fitness is -0.156 ± 0.04.

For HETKLSILMDMFPAISKSKLQVHLLENNNDLDLTIGLLL [S3T], the abundance fitness is -0.344 ± 0.063.

Take HECKLSILMDMFPAISKSKLQVHLLENNNDLDLTIGLLL [S3C]: the abundance fitness was -0.146 ± 0.38.

With HEMKLSILMDMFPAISKSKLQVHLLENNNDLDLTIGLLL [S3M], the abundance fitness was -0.042 ± 0.073.

On to HEEKLSILMDMFPAISKSKLQVHLLENNNDLDLTIGLLL [S3E], for which the abundance fitness was -0.106 ± 0.043.

Consider HWSKLSILMDMFPAISKSKLQVHLLENNNDLDLTIGLLL [E2W], for which the abundance fitness is -0.349 ± 0.068.

HVSKLSILMDMFPAISKSKLQVHLLENNNDLDLTIGLLL [E2V]: the abundance fitness is -0.195 ± 0.039.

Regarding HPSKLSILMDMFPAISKSKLQVHLLENNNDLDLTIGLLL [E2P], the abundance fitness was -0.035 ± 0.066.

In the case of HSSKLSILMDMFPAISKSKLQVHLLENNNDLDLTIGLLL [E2S], the abundance fitness is -0.319 ± 0.067.

As for HISKLSILMDMFPAISKSKLQVHLLENNNDLDLTIGLLL [E2I], the abundance fitness worked out at 0.14 ± 0.051.

Consider HCSKLSILMDMFPAISKSKLQVHLLENNNDLDLTIGLLL [E2C], for which the abundance fitness turned out to be 0.283 ± 0.11.

In the case of HLSKLSILMDMFPAISKSKLQVHLLENNNDLDLTIGLLL [E2L], the abundance fitness worked out at 0.109 ± 0.04.

As for HRSKLSILMDMFPAISKSKLQVHLLENNNDLDLTIGLLL [E2R], the abundance fitness was 0.13 ± 0.045.

In the case of HNSKLSILMDMFPAISKSKLQVHLLENNNDLDLTIGLLL [E2N], the abundance fitness amounted to 0.167 ± 0.078.

HTSKLSILMDMFPAISKSKLQVHLLENNNDLDLTIGLLL [E2T]: the abundance fitness worked out at 0.157 ± 0.054.

Regarding HMSKLSILMDMFPAISKSKLQVHLLENNNDLDLTIGLLL [E2M], the abundance fitness turned out to be 0.19 ± 0.061.

As to HDSKLSILMDMFPAISKSKLQVHLLENNNDLDLTIGLLL [E2D], the abundance fitness was -0.133 ± 0.2.

As for HKSKLSILMDMFPAISKSKLQVHLLENNNDLDLTIGLLL [E2K], the abundance fitness came out at 0.153 ± 0.042.

Take HGSKLSILMDMFPAISKSKLQVHLLENNNDLDLTIGLLL [E2G]: the abundance fitness is -0.11 ± 0.039.

On to HQSKLSILMDMFPAISKSKLQVHLLENNNDLDLTIGLLL [E2Q], for which the abundance fitness amounted to 0.113 ± 0.042.

On to HESKLSILLDMFPAISKSKLQVHLLENNNDLDLTIGLLL [M9L], for which the abundance fitness amounted to 0.107 ± 0.042.

Take HESKLSILDDMFPAISKSKLQVHLLENNNDLDLTIGLLL [M9D]: the abundance fitness is -0.255 ± 0.068.

In the case of HESKLSILRDMFPAISKSKLQVHLLENNNDLDLTIGLLL [M9R], the abundance fitness was -0.049 ± 0.032.

With HESKLSILYDMFPAISKSKLQVHLLENNNDLDLTIGLLL [M9Y], the abundance fitness was -0.057 ± 0.055.

On to HESKLSILNDMFPAISKSKLQVHLLENNNDLDLTIGLLL [M9N], for which the abundance fitness was -0.402 ± 0.1.

On to HESKLSILTDMFPAISKSKLQVHLLENNNDLDLTIGLLL [M9T], for which the abundance fitness was -0.054 ± 0.073.

For HESKLSILSDMFPAISKSKLQVHLLENNNDLDLTIGLLL [M9S], the abundance fitness is -0.011 ± 0.042.

Regarding HESKLSILGDMFPAISKSKLQVHLLENNNDLDLTIGLLL [M9G], the abundance fitness was -0.011 ± 0.033.

For HESKLSILCDMFPAISKSKLQVHLLENNNDLDLTIGLLL [M9C], the abundance fitness was -0.159 ± 0.057.

On to HESKLSILPDMFPAISKSKLQVHLLENNNDLDLTIGLLL [M9P], for which the abundance fitness is -1.14 ± 0.28.

HESKLSILVDMFPAISKSKLQVHLLENNNDLDLTIGLLL [M9V]: the abundance fitness stood at 0.014 ± 0.052.

For the variant HESKLSILEDMFPAISKSKLQVHLLENNNDLDLTIGLLL [M9E], the abundance fitness is -0.03 ± 0.054.

On to HESKLSILADMFPAISKSKLQVHLLENNNDLDLTIGLLL [M9A], for which the abundance fitness was -0.042 ± 0.042.

Regarding HESKLSILQDMFPAISKSKLQVHLLENNNDLDLTIGLLL [M9Q], the abundance fitness is -0.013 ± 0.07.

For the variant HESKLSILWDMFPAISKSKLQVHLLENNNDLDLTIGLLL [M9W], the abundance fitness was -0.28 ± 0.059.

Regarding HESKLSILKDMFPAISKSKLQVHLLENNNDLDLTIGLLL [M9K], the abundance fitness is -0.155 ± 0.083.

For HESKLSIWMDMFPAISKSKLQVHLLENNNDLDLTIGLLL [L8W], the abundance fitness is -0.947 ± 0.13.

HESKLSIQMDMFPAISKSKLQVHLLENNNDLDLTIGLLL [L8Q]: the abundance fitness is -0.96 ± 0.33.

Turning to HESKLSISMDMFPAISKSKLQVHLLENNNDLDLTIGLLL [L8S], the abundance fitness was -0.915 ± 0.23.

Consider HESKLSIVMDMFPAISKSKLQVHLLENNNDLDLTIGLLL [L8V], for which the abundance fitness was -0.596 ± 0.046.

Take HESKLSIAMDMFPAISKSKLQVHLLENNNDLDLTIGLLL [L8A]: the abundance fitness is -1.02 ± 0.18.

With HESKLSIRMDMFPAISKSKLQVHLLENNNDLDLTIGLLL [L8R], the abundance fitness is -0.883 ± 0.084.

In the case of HESKLSIMMDMFPAISKSKLQVHLLENNNDLDLTIGLLL [L8M], the abundance fitness was -0.631 ± 0.12.

Consider HESKLSIFMDMFPAISKSKLQVHLLENNNDLDLTIGLLL [L8F], for which the abundance fitness is -0.701 ± 0.18.

For HESKLSIKMDMFPAISKSKLQVHLLENNNDLDLTIGLLL [L8K], the abundance fitness is -0.968 ± 0.15.

For the variant HESKLSIEMDMFPAISKSKLQVHLLENNNDLDLTIGLLL [L8E], the abundance fitness is -0.931 ± 0.09.

In the case of HESKLSIGMDMFPAISKSKLQVHLLENNNDLDLTIGLLL [L8G], the abundance fitness is -0.913 ± 0.065.

In the case of HESKLSIDMDMFPAISKSKLQVHLLENNNDLDLTIGLLL [L8D], the abundance fitness was -1.16 ± 0.42.

Regarding HESKLSILMCMFPAISKSKLQVHLLENNNDLDLTIGLLL [D10C], the abundance fitness is -0.123 ± 0.11.

As to HESKLSILMGMFPAISKSKLQVHLLENNNDLDLTIGLLL [D10G], the abundance fitness is -0.099 ± 0.032.

In the case of HESKLSILMSMFPAISKSKLQVHLLENNNDLDLTIGLLL [D10S], the abundance fitness is -0.299 ± 0.056.

Consider HESKLSILMNMFPAISKSKLQVHLLENNNDLDLTIGLLL [D10N], for which the abundance fitness is -0.086 ± 0.055.

Consider HESKLSILMHMFPAISKSKLQVHLLENNNDLDLTIGLLL [D10H], for which the abundance fitness is -0.145 ± 0.11.

Consider HESKLSILMEMFPAISKSKLQVHLLENNNDLDLTIGLLL [D10E], for which the abundance fitness turned out to be 0.052 ± 0.038.

Consider HESKLSILMKMFPAISKSKLQVHLLENNNDLDLTIGLLL [D10K], for which the abundance fitness is -0.191 ± 0.048.

Source of the values: the Human Domainome abundance scans (Beltran et al. 2025).
